From article PMC7801617, “Cancer associated talin point mutations disorganise cell adhesion and migration” (Scientific Reports, 2021)
No end group written: not given here.

Tests used:
[1] = target: T1, talin-1 R7–R8 fragment, wildtype (residues 1355–1652) (mouse, UniProt P26039 1355-1652); assay: fluorescence polarisation; R7–R8 protein serially diluted from 60 µM with KANK1 (30–68) peptide at 1 µM, and from 75 µM with RIAM (4–30) peptide at 1 µM; 20 °C; CLARIOstar plate reader; one-site total binding equation; conditions: both partners purified
T1 construct: talin-1, mouse, R7–R8 domains, residues 1355–1652, made from full-length mouse talin-1 as template; also called R7–R8 WT; Wildtype R7–R8; source: E. coli BL21 (DE3), purified (HisTrap HP, HiTrap Q HP anion exchange)

[2] = target: T2, talin-1 R7–R8 fragment (residues 1355–1652) with mutation R1368W (mouse, UniProt P26039 1355-1652, R1368W); assay: as above; conditions: both partners purified
T2 construct: talin-1, mouse, R7–R8 domains, residues 1355–1652, with R1368W; The mutation is a somatic mutation of human cancers (COSMIC; also in the 1000 Genomes database), put into the mouse talin-1 fragment by site-directed mutagenesis; also called R7–R8 R1368W; source: E. coli BL21 (DE3), purified (HisTrap HP, HiTrap Q HP anion exchange)

[3] = target: T3, talin-1 R7–R8 fragment (residues 1355–1652) with mutation Y1389C (mouse, UniProt P26039 1355-1652, Y1389C); assay: as above; conditions: both partners purified
T3 construct: talin-1, mouse, R7–R8 domains, residues 1355–1652, with Y1389C; The mutation is a somatic mutation of human cancers (COSMIC), put into the mouse talin-1 fragment by site-directed mutagenesis; also called R7–R8 Y1389C; source: E. coli BL21 (DE3), purified (HisTrap HP, HiTrap Q HP anion exchange)

[4] = target: T1, talin-1 R7–R8 fragment, wildtype …; assay: SEC; Vd1 and talin R7–R8 incubated at a 2:1 ratio at a concentration of 100 µM, analysed at room temperature; elution fractions on SDS-PAGE; conditions: both partners purified
[5] = target: T2, talin-1 R7–R8 fragment (residues …); assay: as above; conditions: both partners purified
[6] = target: T3, talin-1 R7–R8 fragment (residues …); assay: as above; conditions: both partners purified
[7] = target: the molecule itself; assay: SEC-MALS; 100 μM protein, room temperature, Superdex 75 column; Viscotek SEC–MALS 9 and RI detector; dimer or monomer

T2 sequence (P26039 1355-1652 R1368W): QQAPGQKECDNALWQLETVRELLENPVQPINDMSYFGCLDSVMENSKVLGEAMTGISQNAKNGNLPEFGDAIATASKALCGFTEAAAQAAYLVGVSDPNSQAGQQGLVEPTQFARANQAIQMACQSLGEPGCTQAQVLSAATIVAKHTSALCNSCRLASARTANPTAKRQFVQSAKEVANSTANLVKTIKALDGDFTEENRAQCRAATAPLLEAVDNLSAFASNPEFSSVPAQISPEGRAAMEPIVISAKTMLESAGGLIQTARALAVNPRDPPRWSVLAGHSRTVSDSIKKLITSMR
T3 sequence (P26039 1355-1652 Y1389C): as the sequence (P26039 1355-1652 R1368W) above, with W14R, Y35C counted along it
T1 sequence (P26039 1355-1652): as the sequence (P26039 1355-1652 R1368W) above, with W14R counted along it

B1: RIAM (4–30) peptide (peptide)
peptide: SEDIDQMFSTLLGEMDLLTQSLGVDTC
modifications: also: BODIPY or Fluorescein dye coupled via C-terminal Cys
notes: RIAM, mouse, printed as residues 4–30; added C-terminal cysteine for coupling of the dye; also called RIAM peptide; LD-motif of RIAM; source: synthetic peptide (GLBiochem, China)
- binding result [1]: binds
- binding result [2]: binds
- binding result [3]: binds

B2: vinculin Vd1 domain (residues 1–258) (domain or fragment, UniProt P12003 1-258, looked up)
chain: MPVFHTRTIESILEPVAQQISHLVIMHEEGEVDGKAIPDLTAPVSAVQAAVSNLVRVGKETVQTTEDQILKRDMPPAFIKVENACTKLVRAAQMLQADPYSVPARDYLIDGSRGILSGTSDLLLTFDEAEVRKIIRVCKGILEYLTVAEVVETMEDLVTYTKNLGPGMTKMAKMIDERQQELTHQEHRVMLVNSMNTVKELLPVLISAMKIFVTTKNTKSQGIEEALKNRNFTVEKMSAEINEIIRVLQLTSWDEDAW
notes: vinculin, Vd1 domain, residues 1–258
- stoichiometry N [4]: 1
- stoichiometry N [5]: 1
- stoichiometry N [6]: 2

B3: talin-1 R13–DD fragment, wildtype (residues 2300–2541) (domain or fragment, mouse, UniProt P26039 2300-2541, looked up)
chain: DPTVIAENELLGAAAAIEAAAKKLEQLKPRAKPKEADESLNFEEQILEAAKSIAAATSALVKAASAAQRELVAQGKVGAIPANALDDGQWSQGLISAARMVAAATNNLCEAANAAVQGHASQEKLISSAKQVAASTAQLLVACKVKADQDSEAMKRLQAAGNAVKRASDNLVKAAQKAAAFEDQENETVVVKEKMVGGIAQIIAAQEEMLRKERELEEARKKLAQIRQQQYKFLPSELRDEH
notes: talin-1, mouse, R13 and dimerisation domain (DD), residues 2300–2541; Constitutive dimer by SEC–MALS; also called R13–DD WT; Talin R13–DD wildtype; source: E. coli BL21 (DE3), purified (HisTrap HP, HiTrap Q HP anion exchange)
- stoichiometry N [7]: 2
